What was measured:
[1] = biological target: T1, cynomolgus DR3 (on HEK293 reporter cells) (cynomolgus, UniProt A0A2K5WJ09 98-464); experiment: cell-based or functional assay
T1 sequence: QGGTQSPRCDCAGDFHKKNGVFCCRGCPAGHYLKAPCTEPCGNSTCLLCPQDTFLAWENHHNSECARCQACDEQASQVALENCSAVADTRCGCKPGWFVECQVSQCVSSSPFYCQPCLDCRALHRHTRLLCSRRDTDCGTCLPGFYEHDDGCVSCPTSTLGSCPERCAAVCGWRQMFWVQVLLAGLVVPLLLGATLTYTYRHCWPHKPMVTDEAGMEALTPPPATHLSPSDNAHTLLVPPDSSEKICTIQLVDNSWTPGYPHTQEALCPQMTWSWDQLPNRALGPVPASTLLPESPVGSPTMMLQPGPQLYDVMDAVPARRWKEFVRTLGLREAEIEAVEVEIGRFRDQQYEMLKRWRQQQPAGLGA

[2] = biological target: T2, human DR3 with the death domain deleted (ΔM339-P417 of SEQ ID NO:1), expressed on CHOK1SV cells (human, UniProt Q93038 25-338); experiment: FACS on DR3 expressing cells; competitor Mab 0107
T2 construct: also called truncated DR3; hDR3 expressing CHO cells
T2 sequence: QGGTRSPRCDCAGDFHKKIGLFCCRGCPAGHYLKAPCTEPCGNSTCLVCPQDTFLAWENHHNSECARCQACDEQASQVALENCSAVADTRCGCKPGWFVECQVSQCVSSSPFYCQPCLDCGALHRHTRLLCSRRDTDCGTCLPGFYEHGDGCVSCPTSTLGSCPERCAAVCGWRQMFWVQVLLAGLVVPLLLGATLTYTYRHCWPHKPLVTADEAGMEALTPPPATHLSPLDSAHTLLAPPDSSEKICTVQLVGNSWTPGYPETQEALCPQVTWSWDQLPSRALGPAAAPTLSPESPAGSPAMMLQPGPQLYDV

[3] = biological target: T3, human DR3 (full length, on cells) (human, UniProt Q93038 25-417); experiment: cell-based or functional assay
T3 sequence: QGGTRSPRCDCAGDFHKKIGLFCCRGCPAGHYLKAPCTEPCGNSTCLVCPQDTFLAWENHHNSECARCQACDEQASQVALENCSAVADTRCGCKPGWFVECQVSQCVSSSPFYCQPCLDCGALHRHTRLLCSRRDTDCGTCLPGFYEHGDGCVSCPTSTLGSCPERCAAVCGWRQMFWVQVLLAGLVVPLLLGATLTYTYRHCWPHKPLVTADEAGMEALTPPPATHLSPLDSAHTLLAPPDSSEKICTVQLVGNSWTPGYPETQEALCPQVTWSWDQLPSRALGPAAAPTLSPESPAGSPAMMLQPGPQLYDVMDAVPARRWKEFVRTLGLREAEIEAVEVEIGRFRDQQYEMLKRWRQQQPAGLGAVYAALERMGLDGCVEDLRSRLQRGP

[4] = biological target: T4, DR3 (CRD1)-Fc (human); experiment: SPR Biacore T200, DR3(CRD1)-Fc captured by anti-human IgG, Fab as analyte, 25 C, 1:1 model, mean of 3 surface densities
T4 construct: Amino acids 25-71 of DR3 fused to the Fc domain of human IgG4; purified to exclude oligomers (mainly dimeric)
T4 sequence (chain, as listed by the source limits assumed): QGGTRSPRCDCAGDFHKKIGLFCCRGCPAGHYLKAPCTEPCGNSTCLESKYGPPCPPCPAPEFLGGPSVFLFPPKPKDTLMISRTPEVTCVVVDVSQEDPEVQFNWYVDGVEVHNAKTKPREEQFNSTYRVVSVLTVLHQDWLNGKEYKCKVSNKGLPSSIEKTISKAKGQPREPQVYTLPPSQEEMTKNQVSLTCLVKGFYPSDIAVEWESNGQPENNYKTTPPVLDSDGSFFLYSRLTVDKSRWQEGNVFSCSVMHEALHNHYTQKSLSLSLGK
Description: The experiments were performed on a Biacore T200 instrument (GE Healthcare) and analysed with the Biacore T200 Evaluation Software. Anti human IgG antibodies (human IgG capture kit from GE Healthcare) were immobilized on all flow cells of a CM5 sensor chip according to manufacturer's instructions. HBS-EP (GE Healthcare) with 0.1% human serum albumin was used as running buffer. DR3(CRD1)-Fc (SEQ ID NO:2) was captured on the chip at low surface densities between 14 and 45 RU. Fab fragments were diluted to concentrations between 90 and 0.037 nM and subsequently injected for 360 s. […] Binding curves were measured at 25° C. with a flow rate between 30 and 60 μL/min.
Regeneration was performed with 3 M […] for 2×20 s. The raw data were double referenced by subtraction of the signals from a reference flow cell without captured ligand and a buffer blank. Determination of the kinetic parameters was performed by fitting with a 1:1 binding model using the Biacore T200 Evaluation Software (GE Healthcare). Average values obtained from 3 different surface densities of DR3(CRD1)-Fc (SEQ ID NO:2) were calculated and are stated in table 14

[5] = biological target: T1, cynomolgus DR3 (on HEK293 reporter …); experiment: cell-based or functional assay; remark: listed apart in the source
[6] = biological target: T5, marmoset DR3 (transiently expressed on HEK293 cells) (marmoset, UniProt U3ENN5 27-418); experiment: cell-based or functional assay
T5 sequence: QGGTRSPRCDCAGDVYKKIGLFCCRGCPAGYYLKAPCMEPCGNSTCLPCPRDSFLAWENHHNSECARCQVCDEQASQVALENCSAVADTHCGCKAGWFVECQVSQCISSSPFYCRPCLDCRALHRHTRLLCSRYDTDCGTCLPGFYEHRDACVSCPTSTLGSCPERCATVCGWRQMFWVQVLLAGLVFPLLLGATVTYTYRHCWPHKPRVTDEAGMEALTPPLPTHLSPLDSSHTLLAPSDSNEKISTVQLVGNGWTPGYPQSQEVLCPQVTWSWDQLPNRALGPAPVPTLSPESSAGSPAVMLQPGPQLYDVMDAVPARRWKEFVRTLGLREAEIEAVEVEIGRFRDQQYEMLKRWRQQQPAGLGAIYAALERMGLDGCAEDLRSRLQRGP

B1: 0228 (humanized Fab of 27F44, IgG4, hz0072VH S49A / hz0072VL) (Fab, V domains shown)
VH: EVQLVESGGGLVQPGGSLRLSCAASGFTFSNYDMSWVRQATGKGLEWVAAFSSDGYTFYPGSVKGRFTISRENAKNSLYLQMNSLRAGDTAVYYCARHADYANYPVMDYWGQGTLVTVSS
VL: DIQMTQSPSSLSASVGDRVTITCRASKSVSTSGYSYMHWYQQKPGKAPKLLIYLASNLESGVPSRFSGSGSGTDFTLTISSLQPEDFATYYCQHSRELPLTFGGGTKVEIKR
notes: IgG4-Cys, hz (humanized IgG4 Fab with the hinge cysteine kept)
[1]
  IC50 at 40 ng/ml TL1A, Lyda20 reporter cells: 628 nM
[2]
  molar ratio Mab/Fab from which the Fab inhibits: 1 Fab per Mab (molar ratio Mab/Fab 1:n)
[3]
  IC50, TNFalpha inhibition, TL1A-activated CD4+ T cells, donor 1: 0.3 nM
  IC50, TNFalpha inhibition, TL1A-activated CD4+ T cells, donor 2: 0.17 nM
  IC50, TNFalpha inhibition, average (n 3): 0.189 nM
  max % inhibition of TNFalpha, donor 1: 92.2%
  max % inhibition of TNFalpha, donor 2: 82.3%
[4]
  Kd: 8.05 pM
  koff: 3.19e-05 s⁻¹
  kon: 3.97e+06 M⁻¹ s⁻¹
[5]
  IC50 at 40 ng/ml TL1A, transient reporter HEK293: 73 nM
[6]
  IC50 at 40 ng/ml TL1A, transient reporter HEK293: 549 pM
